Assay results reported in the RNAGym collection of RNA variant scans (doi:10.7554/elife.80360).

B1: Twister Ribozyme (parent)
chain: AACACUGCCAAUGCCGGUCCCAAGCCCGGAUAAAAGUGGAGGGGGCGG

Variants of: B1
Assay: self-cleavage, relative activity (ratio to wild type); higher = more cleavage; co-transcriptional
For AACACUGCCAAUGCCGGUCCCAAGCCCGGAUAAUAGUGGAGGGGGCGA [A34U G48A], the self-cleavage was 0.703. With AACACUGCCAAUGCCGGUCCCAAGCCCGGAUAAACCUGGAGGGGGCGG [A35C G36C] the self-cleavage was 0.382. AACACUGCCAAUGCCGGUCCCAAGCCCGGAUAAUAGCGGAGGGGGCGG [A34U U37C] gave a self-cleavage of 0.155. AACACUGCCAAUGCCGGUCCCAAGCCCGGAUAAUAGAGGAGGGGGCGG [A34U U37A] gave a self-cleavage of 0.368. In the case of AACACUGCCAAUGCCGGUCCCAAGCCCGGAUAACAGUGGAAGGGGCGG [A34C G41A], the self-cleavage is reported as 0.133. Variant AACACUGCCAAUGCCGGUCCCAAGCCCGGAUAAGAGUGGAGGGAGCGG [A34G G44A] has a self-cleavage of 0.809. Work on AACACUGCCAAUGCCGGUCCCAAGCCCGGAUAAUAGUGGAGAGGGCGG [A34U G42A] yielded a self-cleavage of 0.169. In the case of AACACUGCCAAUGCCGGUCCCAAGCCCGGAUAAUAGUGGAGUGGGCGG [A34U G42U], the self-cleavage is reported as 0.145. With AACACUGCCAAUGCCGGUCCCAAGCCCGGAUAAUAGUGGAGCGGGCGG [A34U G42C] the self-cleavage was 0.217. In the case of AACACUGCCAAUGCCGGUCCCAAGCCCGGAUAAACGUGGAGGCGGCGG [A35C G43C], the self-cleavage is reported as 0.206. AACACUGCCAAUGCCGGUCCCAAGCCCGGAUAAACGUGGAGGAGGCGG [A35C G43A] showed a self-cleavage of 0.235. Work on AACACUGCCAAUGCCGGUCCCAAGCCCGGAUAAACGUGGAGCGGGCGG [A35C G42C] yielded a self-cleavage of 0.381. In the case of AACACUGCCAAUGCCGGUCCCAAGCCCGGAUAGAAGUGGAGGGGGCGA [A33G G48A], the self-cleavage is reported as 0.856. With AACACUGCCAAUGCCGGUCCCAAGCCCGGAUAGAAGUGGAGGGGGCGU [A33G G48U] the self-cleavage was 0.903. In the case of AACACUGCCAAUGCCGGUCCCAAGCCCGGAUAGAAGUGGAGGGGGCGC [A33G G48C], the self-cleavage is reported as 1.07. For AACACUGCCAAUGCCGGUCCCAAGCCCGGAUAACAGUGAAGGGGGCGG [A34C G39A], the self-cleavage was 0.155. With AACACUGCCAAUGCCGGUCCCAAGCCCGGAUAACAGUGCAGGGGGCGG [A34C G39C] the self-cleavage was 0.0839. With AACACUGCCAAUGCCGGUCCCAAGCCCGGAUAAGCGUGGAGGGGGCGG [A34G A35C] the self-cleavage was 0.742. Work on AACACUGCCAAUGCCGGUCCCAAGCCCGGAUAAUAUUGGAGGGGGCGG [A34U G36U] yielded a self-cleavage of 0.124. In the case of AACACUGCCAAUGCCGGUCCCAAGCCCGGAUAAUACUGGAGGGGGCGG [A34U G36C], the self-cleavage is reported as 0.132. AACACUGCCAAUGCCGGUCCCAAGCCCGGAUAAGAGUGAAGGGGGCGG [A34G G39A] showed a self-cleavage of 0.133. For AACACUGCCAAUGCCGGUCCCAAGCCCGGAUAAACGUGGAGGGGGCGG [A35C], the self-cleavage was 0.962. With AACACUGCCAAUGCCGGUCCCAAGCCCGGAUAAAGGUGGAGGGGGCGG [A35G] the self-cleavage was 0.864. For AACACUGCCAAUGCCGGUCCCAAGCCCGGAUAAGAGUGGCGGGGGCGG [A34G A40C], the self-cleavage was 0.198. In the case of AACACUGCCAAUGCCGGUCCCAAGCCCGGAUAAUAGUGGAGGGGCCGG [A34U G45C], the self-cleavage is reported as 0.295. Variant AACACUGCCAAUGCCGGUCCCAAGCCCGGAUAAUAGUGGAGGGGACGG [A34U G45A] has a self-cleavage of 0.815. AACACUGCCAAUGCCGGUCCCAAGCCCGGAUAAUAGUGGAGGGGGAGG [A34U C46A] gave a self-cleavage of 0.76. With AACACUGCCAAUGCCGGUCCCAAGCCCGGAUAUAAGUGGAGGGUGCGG [A33U G44U] the self-cleavage was 0.897. Work on AACACUGCCAAUGCCGGUCCCAAGCCCGGAUAAACGCGGAGGGGGCGG [A35C U37C] yielded a self-cleavage of 0.592. Work on AACACUGCCAAUGCCGGUCCCAAGCCCGGAUAAACGAGGAGGGGGCGG [A35C U37A] yielded a self-cleavage of 0.702. In the case of AACACUGCCAAUGCCGGUCCCAAGCCCGGAUAUAAGUGGAUGGGGCGG [A33U G41U], the self-cleavage is reported as 0.489. In the case of AACACUGCCAAUGCCGGUCCCAAGCCCGGAUAUAAGUGGAAGGGGCGG [A33U G41A], the self-cleavage is reported as 0.472. AACACUGCCAAUGCCGGUCCCAAGCCCGGAUAUAAGUGGACGGGGCGG [A33U G41C] showed a self-cleavage of 0.18. AACACUGCCAAUGCCGGUCCCAAGCCCGGAUAUAAGUGGGGGGGGCGG [A33U A40G] gave a self-cleavage of 0.154. Variant AACACUGCCAAUGCCGGUCCCAAGCCCGGAUAUAAGUGGAGGCGGCGG [A33U G43C] has a self-cleavage of 0.101. AACACUGCCAAUGCCGGUCCCAAGCCCGGAUAUAAGUGGAGGAGGCGG [A33U G43A] showed a self-cleavage of 0.233. With AACACUGCCAAUGCCGGUCCCAAGCCCGGAUAUAACUGGAGGGGGCGG [A33U G36C] the self-cleavage was 0.174. AACACUGCCAAUGCCGGUCCCAAGCCCGGAUAUAAGCGGAGGGGGCGG [A33U U37C] showed a self-cleavage of 0.379. Work on AACACUGCCAAUGCCGGUCCCAAGCCCGGAUAAACGUCGAGGGGGCGG [A35C G38C] yielded a self-cleavage of 0.921. Variant AACACUGCCAAUGCCGGUCCCAAGCCCGGAUAAACGUGGAGGGGCCGG [A35C G45C] has a self-cleavage of 0.472. AACACUGCCAAUGCCGGUCCCAAGCCCGGAUAAGACUGGAGGGGGCGG [A34G G36C] showed a self-cleavage of 0.179. AACACUGCCAAUGCCGGUCCCAAGCCCGGAUAAGAGUGGAGGGGACGG [A34G G45A] showed a self-cleavage of 0.721. AACACUGCCAAUGCCGGUCCCAAGCCCGGAUAAGAGUGGAGGGGUCGG [A34G G45U] showed a self-cleavage of 0.553. In the case of AACACUGCCAAUGCCGGUCCCAAGCCCGGAUAACAUUGGAGGGGGCGG [A34C G36U], the self-cleavage is reported as 0.084. In the case of AACACUGCCAAUGCCGGUCCCAAGCCCGGAUAACAAUGGAGGGGGCGG [A34C G36A], the self-cleavage is reported as 0.0949. AACACUGCCAAUGCCGGUCCCAAGCCCGGAUAACACUGGAGGGGGCGG [A34C G36C] showed a self-cleavage of 0.104. With AACACUGCCAAUGCCGGUCCCAAGCCCGGAUAAGAGUGGAGUGGGCGG [A34G G42U] the self-cleavage was 0.131. AACACUGCCAAUGCCGGUCCCAAGCCCGGAUAUAAGUCGAGGGGGCGG [A33U G38C] showed a self-cleavage of 0.77. With AACACUGCCAAUGCCGGUCCCAAGCCCGGAUAUAAGUAGAGGGGGCGG [A33U G38A] the self-cleavage was 0.946. AACACUGCCAAUGCCGGUCCCAAGCCCGGAUAUAAGUGGAGGGGGCGG [A33U] gave a self-cleavage of 0.998. For AACACUGCCAAUGCCGGUCCCAAGCCCGGAUAACAGUUGAGGGGGCGG [A34C G38U], the self-cleavage was 0.138. AACACUGCCAAUGCCGGUCCCAAGCCCGGAUAAUAGUCGAGGGGGCGG [A34U G38C] showed a self-cleavage of 0.638. In the case of AACACUGCCAAUGCCGGUCCCAAGCCCGGAUAAUAGUAGAGGGGGCGG [A34U G38A], the self-cleavage is reported as 0.654. AACACUGCCAAUGCCGGUCCCAAGCCCGGAUAACAGUGGAGGGGGAGG [A34C C46A] showed a self-cleavage of 0.142.
